Measurements from patent US20200002709.

Tests used:
Assay in all cases: cell_activity
[1] = tested on: TaGliadin_T02.1 TALE nuclease pair; details: wheat protoplasts; TABLE 7: 0.00 nuclease only, 2.43 with TREX, 5.33 with 5-azacytidine, 0.00 with trichostatin A
[2] = tested on: TaGliadin_T03.1 TALE nuclease pair; details: wheat protoplasts; also 0.00 for all treatments in TABLE 7
[3] = tested on: TaGliadin_T01.1 TALE nuclease pair; details: wheat protoplasts, nuclease only; 0.325% in TABLE 6; 2.40 with TREX, 1.29 with 5-azacytidine, 0.90 with trichostatin A

“TCTCATCCTTGCCCTCCTTGCTATCGTGGCGACCACCGCCACAACTGCA (double strand) [TaGliadin_T02.1 target]” gave an activity (% mutation frequency) [1] of 0.746.

Work on “TCAGCAACAGCCACAAGAGCAAGTTCCATTGGTGCAACAACAACAATTTCCA (double strand) [TaGliadin_T03.1 target]” yielded an activity (% mutation frequency) [2] of 0.

“TTAGAGTTCCAGTGCCACAATTGCAGCCACAAAATCCATCTCAGCAACA (double strand) [TaGliadin_T01.1 target]” was tested, and the activity (% mutation frequency) [3] was 1.57.
